Where no end group is shown, it is not given here.
Columns and labels:
[1] = target: VWF (Homo sapiens, UniProt P04275); experiment: VWF binding in the presence or absence of ristocetin (FIG. 7)
[2] = target: T1, platelet GPIbα (Homo sapiens, UniProt P07359); experiment: Platelet adhesion to collagen III under constant shear, whole blood perfusion with OS-1; format: cell-based; settings: for Numbers of adherent platelets: 20 µg ml^-1 abciximab; for Platelet adhesion (relative, fluorescence intensity): collagen III, 1,500 s^-1
T1 construct: endogenous in cells; host or cells: platelets in citrated whole blood
Excerpt: (§1) In-house designed PDMS microfluidic chips (FIG. 1A) contained channels of 52 µm height with a footprint of 300 µm x 46 mm (used in FIG. 1) or 300 µm x 17 mm. Selected channels incorporated a semi-circular stenotic section of various lengths (600 µm, 1000 µm or 2000 µm diameter), creating 80% lumen reduction. Chips were manufactured as previously reported (Westein et al. Proceedings of the National Academy of Sciences of the United States of America. 2013 Jan 22;110(4):1357-62). The produced PDMS chips were sealed with cover slips by hydrophobic interaction and coated with collagen by perfusion of collagen solution followed by static incubation at RT for at least 1 hr. Channels were rinsed with PBS and blocked with 2% BSA. Wall shear rates of the input flow for these microchannels were approximated from volumetric flow rates by using the equation, γ = 6Q/wh2. Herein, γ is the wall shear rate (s^-1), Q the volumetric flow rate (mls^-1), w the channel with (cm) and h the channel height (cm).
(§2) Citrated whole blood was incubated with DiOC6 (0.5 µg ml^-1) (Sigma-Aldrich Co, St. Louis, MO, USA) and drawn through microfluidic channels by a programmable syringe pump (Legato 130, KD Scientific, USA). Time-lapse z-stack images of platelet deposition were captured in multiple track, resonant scanning mode, using a Nikon A1R confocal microscope system. Platelet deposition was recorded over time (2 frames per minute) for up to 20 minutes and quantified in ImageJ using a Z-projection of the acquired signal.
For experiments measuring rolling velocities, anti αllbβ3 antibody (abciximab; 20 µg ml^-1)-treated whole blood containing 0.5 µg ml^-1 DiOC6 was drawn over a collagen type III-coated surface. Where indicated, blood was incubated with 30 µM aspirin (Sigma Aldrich, USA) and 300 µM 2-MeSAMP (Sigma-Aldrich Co, St. Louis, MO, USA) prior to blood perfusion. 10 second video clips of rolling platelets were recorded in the green fluorescent channel using an Olympus IX81 microscope system. Platelet rolling velocities were calculated using Diatrack v3.04 large scale particle tracking software (Vallotton et al. Microsc Microanal. 2013 Apr;19(2):451-60).

[3] = tested on: thrombus formation / platelet deposition; experiment: Thrombus formation on collagen type I in stenosis channels (SRG versus constant shear); format: cell-based, human; settings: 15 minutes of blood flow; for Platelet deposition: 0.1 µM OS-1
Excerpt: as §1, §2

Row | Substance | Mechanism of VWF binding (dependence on conformation) [1] | Numbers of adherent platelets ([2]; 3 µM OS-1, constant shear 2,000 s^-1) | Numbers of adherent platelets ([2]; 3 µM OS-1, constant shear above 500 s^-1) | Platelet adhesion (relative, fluorescence intensity) ([2]; 3 µM OS-1) | Platelet adhesion (relative, fluorescence intensity) ([2]; increasing concentrations of OS-1) | Platelet deposition ([3]; constant shear) | Platelet deposition ([3]; shear gradient conditions) | Thrombus formation ([3]; 2000 s^-1 constant shear) | Thrombus formation ([3]; SRGs (187-1,500 s^-1)) | Thrombus formation ([3]; SRGs (300-2,000 s^-1))
1 | Cablivi: commercially available antibody (Cablivi®, Sanofi) binding VWF [reference compound] | conformation independent |  |  |  |  |  |  |  |  | 
2 | OS-1: cyclic peptide, allosteric inhibitor of GPlbα/VWF interactions with sequence CTERMALHNLC, obtained from Auspep (also: cyclic peptide, ring not described) [reference compound] |  | 11±4 platelets per field | 53±4 platelets per field | completely abolished | concentration dependently reduced | inhibited | inhibited | reduced thrombus formation | inhibited thrombus formation | inhibited thrombus formation

— patent publication US20230227580A1, “ANTI-VWF ANTIBODIES AND USES THEREOF” (MONASH UNIVERSITY, priority 2020, published 2023)
